From the supplement of paper PMC9170038

Tested on: MS2 coat protein
Experiment: apparent KD of MS2 coat protein; designed switch direction (-1 OFF switch, 1 ON switch): -1; higher = weaker reporter binding
In short: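 Transcription of designed RNA switches on Illumina chips was done by stalled E. coli RNA polymerase. SNAP-549-labelled MS2 coat protein was then titrated in doubling steps from 0.7 or 1.5 nM to 3 µM, with steps of 0.8–1.5 h at the lowest and 10–20 min at the highest concentration. The per-design median over clusters of curve-fitted normalised fluorescence is reported as apparent KD.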

[1] = Eterna round: R95, input ligand: FMN 200 uM
[2] = Eterna round: R95, input ligand: microRNA oligo, concentration not stated
[3] = Eterna round: R95, input ligand: none
[4] = input ligand: microRNA oligo, concentration not stated

Row | Sequence | apparent KD of MS2 coat protein [1] | apparent KD of MS2 coat protein [2] | apparent KD of MS2 coat protein [3] | apparent KD of MS2 coat protein (input ligand: FMN 200 uM) | apparent KD of MS2 coat protein (input ligand: none) | apparent KD of MS2 coat protein [4]
1 | GAAAAGGUAGGAUAUACGAAAAAAAAGGGUAGAAAAAAAACACAUGAGGAUCACCCAUGUAGAAGGGCCAAAAG [salish99_ex2_r3_032] (puzzle: Exclusion 2) | 40.2 nM | 34 nM | 45.3 nM |  |  | 
2 | UUGACGGCAGGAUAUACAUGAGGAUCACCCAUGUAAAUUUUUCGUUUAACUUGAAUGUGUAGAAGGGCCAAACC [Ex3 #77] (Eterna round: R97, puzzle: Exclusion 3) |  |  |  | 19.4 nM | 20.4 nM | 
3 | CCAGCGUAUGUGAGGAUAUGCUGGUCCUUGGAUCAGCAGAAGGCACAUGAGGAUCACCCAUGUGAGAGCGUUGG [JL bmx4 3.37] (puzzle: Brourd's mod of Exclusion 4) |  | 21.4 nM |  |  |  | 
4 | AAACUGCAUGUGAGGAUAUGCACCGACUAAACCGGGCAGAAGGCACAUGAGGAUCACCCAUGUCAUCCUAUUGC [Beederte] (puzzle: Brourd's mod of Exclusion 4) |  | 7.99 nM |  |  |  | 
5 | AAAUGCGAGCGAGGAUAUCAGAAAGGAAGUGUAUGAGAAGGCGCACCGCGGGUAUCCGGACAUGAGGAUCACCCAUGUAGGCUC [PowerStrip EXNG 1.28] (Eterna round: R96, puzzle: Exclusion NG 1) |  |  |  | 23.2 nM | 29.5 nM | 17.8 nM
6 | CCCAAAGGGACAAGCUUUUACAUGAGGAUCACCCAUGUUUUGGGAGCUCGUCUUAUGGGCCCGGGAAACCCGGGCCC [-38, -58.7 kcal, A 22%] (Eterna round: R97, puzzle: Sensor, turn-off variant 1) |  |  |  | 17.1 nM | 17.2 nM | 
7 | CUACUGAAGCUUUGCUUUAGUCGUACAUGAGGAUCACCCAUGUAGGAUAUGGUAGGCUUUGCUUACUAGAAGGAUAGAGUGAUC [salish99_ExNG3_r04_601] (Eterna round: R96, puzzle: Exclusion NG 3) |  |  |  | 80.9 nM | 58.1 nM | 38.3 nM
8 | ACGUGAUAUCUGUCGGUGGACAUGAGGAUCACCCAUGUAAGCUUUCUGCUCGUCUUAUAACCCGGUGACAGACCUUC [Diteerquus] (puzzle: Sensor v3, turn-off variant 1) | 45.3 nM | 310 nM | 56.9 nM |  |  | 
9 | ACAUGAGGAUCACCCAUGUAAACAUAAUGGCUCAUGUAGAGUCAGGAUAUGCGUGGCUAACAAUCGCAGAAGGGACAAGACUGG [Deportation 29 - Jieux - Exclusion NG 3] (Eterna round: R96, puzzle: Exclusion NG 3) |  |  |  | 22.1 nM | 24.5 nM | 20.2 nM
10 | UUAUAACAUGUAGGAUAUGCGUGGCGAAGCUAUGCAGAAGGACAUGAGGAUCACCCAUGUUCCUGCGUCCGCGUACGGAUGCAA [JL Eng1 1.21 mod 1] (Eterna round: R96, puzzle: Exclusion NG 1) |  |  |  | 34.1 nM | 14.3 nM | 14.1 nM
11 | GGUUGGCGAGGAUAUACAUGAGGAUCACCCAUGUGAGAGAAAAACGUGAGGAAGAAAAGUAGAAGGCGCUGACG [salish99_ex3_r3_025] (puzzle: Exclusion 3) | 36.4 nM | 81.6 nM | 65.6 nM |  |  | 
12 | GACUUCUCUGAGGAUAUUGCAUCACCCGAUCUAUAAGAAGGCAGAACAUGAGGAUCACCCAUGUGGGUUUCUAG [Bingo-Bango-27] (Eterna round: R97, puzzle: Exclusion 6) |  |  |  | 40.6 nM | 29.7 nM | 
13 | CUUGUUUAUGUAGGAUAUGCCUGGCGUGCCUUUGCAGAAGGACAUGAGGAUCACCCAUGUAACAUGAGGCUUACCCUUGUCGCC [salish99_ExNG1_r04_119] (Eterna round: R96, puzzle: Exclusion NG 1) |  |  |  | 80.6 nM | 68.9 nM | 56.1 nM
14 | GAGUGACAUGAGGAUCACCCAUGUGAGGAUAUCGGACGGACCAAGUUAACAUCCGCCGCGAGAAGGCACAUCGG [Exclusion 1 V23] (puzzle: Exclusion 1) |  | 104 nM |  |  |  | 
15 | AAUUUGUGAGGAUAUCCAAUAUAUGACAUGAGGAUCACCCAUGUUUCCACUCGUACCUCCGGAGAAGGCACUGCAA [Ex5 #38] (Eterna round: R97, puzzle: Exclusion 5) |  |  |  | 21.4 nM | 23.6 nM | 
16 | AGACAGUCAGGAUAUACAUGAGGAUCACCCAUGUUAAGAAAAGAAAGGGCAGGAAGAGGUAGAAGGGACAAGAA [JR_Exclu3_Sub032] (puzzle: Exclusion 3) | 28.8 nM | 28.5 nM | 32.8 nM |  |  | 
17 | GAUAGAGAGCAGGAUAUCUUAGAUAUGUAAUAUAGAGAAGGGCUCACAUGAGGAUCACCCAUGUGGUCCUAGAU [JL Dibiri mod 14] (puzzle: Exclusion 6) | 94 nM | 15.9 nM | 16.1 nM |  |  | 

Row | Sequence | apparent KD of MS2 coat protein [1] | apparent KD of MS2 coat protein [2] | apparent KD of MS2 coat protein [3] | apparent KD of MS2 coat protein (input ligand: FMN 200 uM) | apparent KD of MS2 coat protein (input ligand: none) | apparent KD of MS2 coat protein [4]
18 | AGCAUGUGAGGAUAUGCGAAGGGAAGGAGAGGGAAAGAGAAGCAGAAGGCACAUGAGGAUCACCCAUGUAAGGG [AK-MS2ROC-r4-exclusion4-8.1] (Eterna round: R97, puzzle: Exclusion 4) |  |  |  | 63.9 nM | 969 nM | 
19 | CUGAUGUUAGGAUAUCAGGCACCCGCCACUGGCAGGGCGCAUGAGAAGGGACAUGAGGAUCACCCAUGUAGUAA [Gelaoren] (puzzle: Exclusion 4) |  | 21.3 nM |  |  |  | 
20 | AGAUAGUGCUGAGGAUAUCAGAAUAGAAAGAAAUGAGAAGGCGGACAUGAGGAUCACCCAUGUGAGGUCUUGAGACUACAUGGU [Prohibition 38 - Jieux - Exclusion NG 1] (Eterna round: R96, puzzle: Exclusion NG 1) |  |  |  | 210 nM | 77.3 nM | 65.8 nM
21 | CAGUACUGAGGAUAUACAUGAGGAUCACCCAUGUGAUCUAGUGCACGCGUACGUGUACGUAGAAGGCAGUACUG [JL 3.27 m3] (Eterna round: R97, puzzle: Exclusion 3) |  |  |  | 562 nM | 46.8 nM | 
22 | GCAGCAACUCUAAUCAACUAAACAUGAGGAUCACCCAUGUCUCAGGAUAUGGUCUGGAUUACAGGCCAGAAGGGAGAAAGCUGC [Eli exng3 - 043] (Eterna round: R96, puzzle: Exclusion NG 3) |  |  |  | 16.2 nM | 12.3 nM | 11.2 nM
23 | CCUUAAAUUGUAAGGAUAUUAAAGCUGCUGAGUUAUAAGAAGGUACAUGAGGAUCACCCAUGUUCGGCAGGGUC [Qulexeri] (puzzle: Brourd's mod of Exclusion 4) |  | 17.1 nM |  |  |  | 
24 | CCGUCGAUAGGAUAUACUCCAAGCGAUGGGUGAACCUUUGGACUUGAGGAUCACCCAAGUAGAAGGAUUGACUU [Aorbete] (Eterna round: R97, puzzle: Exclusion 2) |  |  |  | 122 nM | 71 nM | 
25 | CGGUGUAACGUAGGAUAUCAUCGCAACUGACGUUGAGAAGGACGACAUGAGGAUCACCCAUGUGAUUUCUCAAUAUUAUACAUC [Prohibition 85 - Jieux - Exclusion NG 1] (Eterna round: R96, puzzle: Exclusion NG 1) |  |  |  | 69.6 nM | 19.6 nM | 20.4 nM
26 | AGGUUGGCGUGAGGAUAUUGGAAAGGAAGUGUACAAGAAGGUACGGACCUAAAACAUGAGGAUCACCCAUGUGGUCCUUAUGCC [PowerStrip EXNG 1.26] (Eterna round: R96, puzzle: Exclusion NG 1) |  |  |  | 14 nM | 19.6 nM | 11.2 nM
27 | AACAUGUUAGGAUAUGGUCCUGUGCCACAUGGAGGUUUAGGUUAGAAGGGACAUGAGGAUCACCCAUGUUAAAU [Eternabot (L2) Solution 39] (Eterna round: R97, puzzle: Exclusion 4) |  |  |  | 168 nM | 183 nM | 
28 | AGUCGUAGACAGGAUAUGCGGCUAAUAAAUAAUGCAGAAGGGUCUACUUGAGGAUCACCCAAGUGGGCGGUCUG [jl-ex6-4.23 ViennaUCT mod] (Eterna round: R97, puzzle: Exclusion 6) |  |  |  | 70.3 nM | 17.3 nM | 
29 | AGUACUAACACGAGAGUGUUAGUACAAUAAGCUUGUGAAACAUGAGGAUCACCCAUGUCCUCAUAAGCUCGUCUUAU [salish99_TOv2_r3_029] (Eterna round: R96, puzzle: Sensor v3, turn-off variant 2) |  |  |  | 15.3 nM | 18.1 nM | 467 nM
30 | CAACACUGAGGAUAUGCUCGGCCGGUUCUCCGUGCCCAAGUACUUGAGGAUCACCCAAGUAGAAGGCAGUAAAA [Diedar] (Eterna round: R97, puzzle: Exclusion 2) |  |  |  | 18.1 nM | 16 nM | 
31 | CCUAGUUGGUAAGGAUAUCCUACACUGUUCUGACCCGUGCAAGCUACAUGAGGAUCACCCAUGUGGGAGAAGGUGCGUCAACGC [Design 12] (Eterna round: R96, puzzle: Exclusion NG 2) |  |  |  | 29 nM | 29.2 nM | 25.3 nM
32 | CUUUUGUGAGGAUAUCAGUAGUAAAUAAAUAAAAUUUCUACUGAGAAGGCACAUGAGGAUCACCCAUGUUCCUC [salish99_ex3_r3_085] (puzzle: Exclusion 4) |  | 36.3 nM |  |  |  | 
33 | GCAGGAUAAGUGAGGAUAUACCUAUGGAUACAUAGGUAGAAGGUACAUGAGGAUCACCCAUGUUCCUUACCUGC [Fiskers BMX 4 - 65] (puzzle: Brourd's mod of Exclusion 4) |  | 11.7 nM |  |  |  | 
34 | UGCUACAUGAGGAUCACCCAUGUAAUGUGGGAAUCGUUAGGACAGGAUAUGAUUGUAUUGUUUUUUCAGAAGGGUCAUUACUUU [JR_ExcNG3_Sub012] (Eterna round: R96, puzzle: Exclusion NG 3) |  |  |  |  |  | 212 nM
